The record followed here is doi:10.1101/2023.04.28.538712 (bioRxiv, 2023).

Assay [1] concerns the target T1, SARS-CoV-2 Spike receptor-binding domain (RBD), biotinylated (SARS-CoV-2, strain ; …, UniProt P0DTC2).
T1 construct: also called SARS-CoV-2 RBD; SarS-CoV-2 RBD
In words: BLI. As to conditions: both partners purified.

Assay [2] deals with T2, β2-microglobulin, biotinylated (Homo sapiens, UniProt P61769).
T2 construct: β2-microglobulin, human; Surmise: such E. coli constructs are usually the mature protein with an added first methionine; also called human β2-microglobulin; recombinant β2-microglobulin
T2 sequence (P61769 21-119): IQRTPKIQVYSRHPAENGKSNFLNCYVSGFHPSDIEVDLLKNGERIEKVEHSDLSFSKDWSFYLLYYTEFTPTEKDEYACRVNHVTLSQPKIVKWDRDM
As to the kind of experiment: BLI; Octet-BLI K2; SA sensors loaded with 50 nM biotinylated β2-microglobulin; Nb24 variants in solution (25-400 nM in Fig. 5C); PBS + 0.05% Tween-20, 30°C, 1000 rpm; global fit, 1:1 partial dissociation binding model; KD mean of 3 independent experiments. As to conditions: both partners purified.

B1: mNb6 humanised variant, AbNatiV Enhanced sampling (+buried) (VHH)
VHH: EVQLVESGGGLVQPGGSLRLSCAASGYIFGRNAMGWVRQAPGKGREWVSGITRRGSITYYADSVKGRFTISRDNAKNTVYLQMNSLRPEDTAVYYCAADPASPAYGDYWGQGTQVTVSS
notes: Parent: mNb6 WT
As to B1, the binding result in assay [1] was “binds”.

B2: mNb6 humanised variant, AbNatiV Exhaustive sampling (VHH)
VHH: EVQLVESGGGLVQPGGSLRLSCAASGYIFGRNAMGWYRQAPGKGLEWVAGITRRGSITYYADSVKGRFTISRDNAKNTVFLQMDSLRPEDTAVYYCAADPASPAYGDYWGQGTLVTVSS
notes: Parent: mNb6 WT; also called mNb6 Exhaustive
As to B2, in assay [1], the Kd was 15 nM.

B3: mNb6 humanised variant, AbNatiV Enhanced sampling (VHH)
VHH: EVQLVESGGGLVQPGGSLRLSCAASGYIFGRNAMGWYRQAPGKERELVAGITRRGSITYYADSVKGRFTISRDNAKNTVFLQMNSLRPEDTAVYYCAADPASPAYGDYWGQGTQVTVSS
notes: Parent: mNb6 WT; also called mNb6 Enhanced
Consider B3, for which the affinity in assay [1], expressed as Kd, was 0.86 nM.

B4: mNb6 humanised variant, Frequency and Structure-based humanisation (Llamanade) (VHH)
VHH: QVQLVESGGGLVQPGGSLRLSCAASGYIFGRNAMGWVRQAPGKGLEWVAGITRRGSITYYADSVKGRFTISRDNAKNTLYLQMNSLRAEDTAVYYCARDPASPAYGDYWGQGTLVTVSS
notes: Parent: mNb6 WT; also called Frequency & structure-based; Frequency and Structure-based variant
Turning to B4, the binding result in assay [1] is on record as “no binding (tested: 500 nM)”.

B5: mNb6 humanised variant, AbNatiV Exhaustive sampling (+buried) (VHH)
VHH: EVQLVESGGGLVQPGGSLRLSCAASGYIFGRNAMGWVRQAPGKGLEWVAGITRRGSITYYADSVKGRFTISRDNAKNTVYLQMDSLRPEDTAVYYCAADPASPAYGDYWGQGTLVTVSS
notes: Parent: mNb6 WT; also called mNb6 Exhausted Sampling + buried; Exhausted +buried
As for B5, in assay [1], the binding result is “binds”.

B6: Nb24 humanised variant, AbNatiV Exhaustive sampling (+buried) (VHH)
VHH: EVQLVESGGGLVQPGGSLRLSCAASGYTDSRYCMAWFRQAPGKGLEWVARINSGRDITYYADSVKGRFTISRDNAKNTVYLQMDSLKPEDTAVYYCATDIPLRCRDIVAKGGDGFRYWGQGTLVTVSS
notes: Parent: Nb24 WT; also called Exhausted +buried; source: E. coli Shuffle LysY, secreted to the medium, purified (His Mag Sepharose Excel beads, SEC Superdex 75)
In the case of B6, the binding result in assay [2] is listed as “binds”.

B7: Nb24 humanised variant, Frequency and Structure-based humanisation (Llamanade) (VHH)
VHH: QVQLVESGGGLVQPGGSLRLSCAASGYTDSRYCMAWFRQAPGKGLEWVARINSGRDITYYADSVKGRFTISRDNAKNTLYLQMNSLRAEDTAVYYCARDIPLRCRDIVAKGGDGFRYWGQGTLVTVSS
notes: Parent: Nb24 WT; also called Frequency & structure-based; Frequency and Structure-based humanised variant; source: E. coli Shuffle LysY, secreted to the medium, purified (His Mag Sepharose Excel beads, SEC Superdex 75)
As to B7, the binding result in assay [2] is listed as “binds”.

B8: Nb24 WT nanobody (VHH)
VHH: QVQLQESGGGSVQAGGSLRLSCAASGYTDSRYCMAWFRQAPGKEREWVARINSGRDITYYADSVKGRFTFSQDNAKNTVYLQMDSLEPEDTATYYCATDIPLRCRDIVAKGGDGFRYWGQGTQVTVSS
notes: source: E. coli Shuffle LysY, secreted to the medium, purified (His Mag Sepharose Excel beads, SEC Superdex 75)
For the molecule B8, in assay [2], the Kd worked out at 79 nM.

B9: Nb24 humanised variant, AbNatiV Enhanced sampling (+buried) (VHH)
VHH: EVQLLESGGGLVQPGGSLRLSCAASGYTDSRYCMAWFRQAPGKEREWVARINSGRDITYYADSVKGRFTVSRDNSKNTVYLQMDSLRPEDTAVYYCATDIPLRCRDIVAKGGDGFRYWGQGTQVTVSS
notes: Parent: Nb24 WT; source: E. coli Shuffle LysY, secreted to the medium, purified (His Mag Sepharose Excel beads, SEC Superdex 75)
In the case of B9, the binding result in assay [2] was “binds”.

B10: Nb24 humanised variant, AbNatiV Enhanced sampling (VHH)
VHH: EVQLLESGGGLVQPGGSLRLSCAASGYTDSRYCMAWFRQAPGKEREWVARINSGRDITYYADSVKGRFTFSRDNSKNTVYLQMDSLRPEDTAVYYCATDIPLRCRDIVAKGGDGFRYWGQGTQVTVSS
notes: Parent: Nb24 WT; also called Nb24 Enhanced; source: E. coli Shuffle LysY, secreted to the medium, purified (His Mag Sepharose Excel beads, SEC Superdex 75)
With B10, the Kd in assay [2] turned out to be 68 nM.

B11: Nb24 humanised variant, AbNatiV Exhaustive sampling (VHH)
VHH: EVQLVESGGGLVQPGGSLRLSCAASGYTDSRYCMAWFRQAPGKGLEWVARINSGRDITYYADSVKGRFTFSRDNAKNTVYLQMDSLRPEDTAVYYCATDIPLRCRDIVAKGGDGFRYWGQGTQVTVSS
notes: Parent: Nb24 WT; also called Nb24 Exhaustive; source: E. coli Shuffle LysY, secreted to the medium, purified (His Mag Sepharose Excel beads, SEC Superdex 75)
Consider B11, for which the dissociation constant Kd in assay [2] was determined as 75 nM.
